From article PMC3170884 (Frontiers in Physiology, 2011)
One block for each molecule: values may come before it.

Assays:
[1] = target: recombinant human BMP2 derived from E. coli expression (human) (UniProt P12643); assay: SPR
[2] = target: recombinant human BMP2 derived from E. coli expression (human, UniProt P12643 283-396); assay: SPR
recombinant human BMP2 derived from E. coli expression, sequence (P12643 283-396): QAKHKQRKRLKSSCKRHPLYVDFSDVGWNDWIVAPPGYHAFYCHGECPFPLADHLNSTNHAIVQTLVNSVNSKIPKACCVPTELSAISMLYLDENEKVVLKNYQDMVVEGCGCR

recombinant human BMP2 derived from E. coli expression (human), sequence (P12643 283-396): as above

- Kd [1]: 20.2 nM
- koff [1]: 0.00071 s⁻¹
- kon [1]: 38000 M⁻¹ s⁻¹
Molecule: Xenopus Tsg (xTsg) from E. coli, non-glycosylated (natural protein)

- Kd [1]: 2.5 nM
- koff [1]: 0.0002 s⁻¹
- kon [1]: 110000 M⁻¹ s⁻¹
Molecule: Xenopus Tsg (xTsg) from insect cells, glycosylated (natural protein)

- KD of the low affinity interaction of the biphasic binding [2]: 301 nM
- KD of the slow (high affinity) interaction of the biphasic binding [2]: 39.6 nM
B1: mouse TWSG1 (mTWSG1) from E. coli, non-glycosylated (natural protein, UniProt Q9EP52 25-222, looked up)
chain: CNKALCASDVSKCLIQELCQCRPGEGNCPCCKECMLCLGALWDECCDCVGMCNPRNYSDTPPTSKSTVEELHEPIPSLFRALTEGDTQLNWNIVSFPVAEELSHHENLVSFLETVNQLHHQNVSVPSNNVHAPFPSDKERMCTVVYFDDCMSIHQCKISCESMGASKYRWFHNACCECIGPECIDYGSKTVKCMNCMF
